28 sequences from the supplement of paper PMC9170038 can be followed below.

The series has as its system MS2 coat protein. Description: apparent KD of MS2 coat protein; designed switch direction (-1 OFF switch, 1 ON switch): 1; higher = weaker reporter binding. The method in brief: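 Designed RNA switches with common flanks were transcribed on Illumina chips by stalled E. coli RNA polymerase and titrated with SNAP-549-labelled MS2 coat protein, from 0.7 or 1.5 nM doubling to 3 µM, in Tris-HCl pH 7.5 buffer with KCl, MgCl2, BSA, DTT, tRNA and Tween-20. Steps lasted 0.8–1.5 h (lowest) to 10–20 min (highest). Titrations ran without input, with 200 uM small-molecule ligand, or with an oligonucleotide input. Normalised cluster fluorescence was curve-fitted, and apparent KD is the per-design median over clusters.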

The mark [1] stands for this setting: Eterna round: R95, input ligand: FMN 200 uM.
Setting [2] is: Eterna round: R95, input ligand: microRNA oligo, concentration not stated.
[3] abbreviates: Eterna round: R95, input ligand: none.
Where [4] appears, read: input ligand: microRNA oligo, concentration not stated.

Turning to “GGUAAACAUGAGGAUCACCCAUGUAAUAAUAUGGGAGGAUAUGGGAAUUAAUUAAUUAAACCAGAAGGCCUAAUGG [Mat - Same State 1 - D86] (puzzle: Same State 1)”, the “apparent KD of MS2 coat protein” value reads like this: under setting [1], 133 nM; under setting [2], 424 nM; under setting [3], 628 nM.
On to “GGUACUAACACAGGAUAUGCUAUCCUUUGGGUAGCAGAAGGGUGGUACAUGAGGAUCACCCAUGUGGUGCCAGGGCGUGAGCCC [JL SSNG1 1.96] (Eterna round: R96, puzzle: Same State NG 1)”, for which the “apparent KD of MS2 coat protein” value is, setting by setting: (input ligand: FMN 200 uM) 408 nM; under setting [4], 538 nM; (input ligand: none) 659 nM.
The matching figures for “GGUAGGUUACUACCAAACAUGAGGAUCACCCAUGUAAGUGGGAAGGAUAUGGUACCUUUUAGGUACCAGAAGGUCCAAUUAAUU [JL Fiskers NG3ss - 2 mod 5] (Eterna round: R96, puzzle: Same State NG 3)”: 205 nM, 511 nM and 3700 nM.
In the same order, the values of “GGUAGGUUACUACCAGACAUGAGGAUCACCCAUGUAAAUGGGAAGGAUAUGGUACCGUUUCGGUACCAGAAGGUCCUAAGUGAG [JL SSNG3 1.48] (Eterna round: R96, puzzle: Same State NG 3)” are 667 nM, 367 nM and 2280 nM.
For “GGUCCAGCCUGAGCUGGACAAAAGCAUGUACAUGAGGAUCACCCAUGUCAUGUACAAGCUUUUUGCUCGUCUUAAAU [Mat - hsa-mir-208a - 84] (puzzle: Sensor for hsa-mir-208a)”, the “apparent KD of MS2 coat protein” value runs as follows: under setting [1], 495 nM; under setting [2], 16.1 nM; under setting [3], 800 nM.
Turning to “GGUCCAGCCUGAGCUGGACAAAAGCAUGUACAUGAGGAUCACCCAUGUCAUGUACAAGCUUUUUGCUCGUCUUAAGU [Mat - hsa-mir-208a - 86] (Eterna round: R96, puzzle: Sensor for hsa-mir-208a)”, the “apparent KD of MS2 coat protein” value came out at 625 nM (input ligand: FMN 200 uM), 14.1 nM under setting [4] and 687 nM (input ligand: none).
Regarding “GGUCCAGCCUGAGCUGGACAAAAGCAUGUACAUGAGGAUCACCCAUGUCAUGUACAAGCUUUUUGCUCGUCUUAAGU [Mat - hsa-mir-208a - 86] (puzzle: Sensor for hsa-mir-208a)”, the “apparent KD of MS2 coat protein” value by setting is: under setting [1], 508 nM; under setting [2], 16.8 nM; under setting [3], 927 nM.
In the same order, the values of “GGUCCAGCCUGAGCUGGACAAAAGCAUGUACAUGAGGAUCACCCAUGUCAUGUACAAGCUUUUUGCUCGUCUUGAAA [JL mod - D87 - 8] (puzzle: Sensor for hsa-mir-208a)” are 359 nM, 16.5 nM and 867 nM.
In the same order, the values of “GGUCCAGCCUGAGCUGGACAAAAGCAUGUACAUGAGGAUCACCCAUGUUCAUGUACAAGCUUUUUGCUCGUCUUAAA [salish99_208a_r3_035] (puzzle: Sensor for hsa-mir-208a)” are 427 nM, 14.7 nM and 633 nM.
With “GGUCCAGCCUGAGCUGGACAAAAGCAUGUACAUGAGGAUCACCCAUGUUCAUGUACAAGCUUUUUGCUCGUCUUAAU [salish99_208a_r3_036] (puzzle: Sensor for hsa-mir-208a)”, the “apparent KD of MS2 coat protein” value reads like this: under setting [1], 525 nM; under setting [2], 15 nM; under setting [3], 492 nM.
“GGUCCCUACGCACAGGAUAUUCUUUUGGCAACAUGAGGAUCACCCAUGUGUGCCGAUCAUGGUUAGAAGAAGGGUGGUAGGGACC [Usisus] (Eterna round: R96, puzzle: Same State 2)”: the “apparent KD of MS2 coat protein” value was found to be 10 nM (input ligand: FMN 200 uM), 10.5 nM under setting [4] and 19.8 nM (input ligand: none).
Take “GGUCCCUACGCACAGGAUAUUCUUUUGGCAACAUGAGGAUCACCCAUGUGUGCCGAUCAUGGUUAGAAGAAGGGUGGUAGGGACC [Usisus] (puzzle: Same State 2)”: the “apparent KD of MS2 coat protein” value runs as follows: under setting [1], 9.87 nM; under setting [2], 12.9 nM; under setting [3], 13.5 nM.
The matching figures for “GGUCCCUACGCACAGGAUAUUCUUUUGGCAACAUGAGGAUCACCCAUGUGUGCCGAUCAUGGUUAGAAGAAGGGUGGUAGGGACG [Cesovexe] (puzzle: Same State 2)”: 12 nM, 11.4 nM and 16.8 nM.
Take “GGUCCGGCCUGAGCUGGACCGAAGCAUGUACAUGAGGAUCACCCAUGUCAUGUACAGGCUUUUUGCUCGUCUUGUUG [JL-shm-2.14 JL Mod] (puzzle: Sensor for hsa-mir-208a)”: the “apparent KD of MS2 coat protein” value was 691 nM under setting [1], 17.2 nM under setting [2] and 746 nM under setting [3].
In the case of “GGUCGGAACCACAUGAGGAUCACCCAUGUUCCGGAAACGGCACAGGAUAUCUGUCCGAAAAGGUCAGAGAAGGGUGAACCGACC [Fiskers NG3ss - 76] (Eterna round: R96, puzzle: Same State NG 3)”, the “apparent KD of MS2 coat protein” value was 285 nM (input ligand: FMN 200 uM), 247 nM under setting [4] and 445 nM (input ligand: none).
In the same order, the values of “GGUCGGACAAAACAUGAGGAUCACCCAUGUCCGGAAACGGCAUAGGAUAUCUGUCCGAAAAGGUCAGAGAAGGGUGAACCGACC [Fiskers NG3ss - 70] (Eterna round: R96, puzzle: Same State NG 3)” are 91.2 nM, 26.1 nM and 140 nM.
As for “GGUGAGAGAGUCUAGGAUAUGAAAGGAGAGACAUGAGGAUCACCCAUGUAAGAGAGAGAGGAGAGUUAGAAGGAGAAGAGAGUGG [Altered State 2-23 - Jieux - Same State 2] (puzzle: Same State 2)”, the “apparent KD of MS2 coat protein” value was 26.8 nM under setting [1], 32 nM under setting [2] and 47 nM under setting [3].
The matching figures for “GUAAAACAUGAGGAUCACCCAUGUCAACAAAGUCGAGGAUAUGGGCAAAUAAAAUAAGAACCAGAAGGCGAAUAAU [salish99_SS1_r3_011] (puzzle: Same State 1)”: 31.6 nM, 254 nM and 325 nM.
Consider “GUAAUACAUGAGGAUCACCCAUGUCAAUGUAGUCGAGGAUAUGGGUAGCUAUGAGGCGUACUAGAAGGCGAGGAGU [JL-ss1-3.18 ViennaUCT mod] (puzzle: Same State 1)”, for which the “apparent KD of MS2 coat protein” value came to 258 nM under setting [1], 72.1 nM under setting [2] and 85.8 nM under setting [3].
As to “GUACUACAUGAGGAUCACCCAUGUACAAAGGUACGAGGAUAUGCAUGGACGAAAGUUGGUGCAGAAGGCGUGGUAC [Pin2Pin #5] (puzzle: Same State 1)”, the “apparent KD of MS2 coat protein” value runs as follows: under setting [1], 21.8 nM; under setting [2], 24.6 nM; under setting [3], 22.9 nM.
Consider “GUACUACAUGAGGAUCACCCAUGUACAAAUGUACGAGGAUAUGCAUGGACGAAAGUUGGUGCAGAAGGCGUAGUAC [Pin2Pin #4] (puzzle: Same State 1)”, for which the “apparent KD of MS2 coat protein” value under setting [2] is 27.1 nM.
“GUACUCAUGUAAGGAUAUGCAGCCGUUUCGGCUGCAGAAGGUACUAUAAUACAUGAGGAUCACCCAUGUCUCUAUAAUUUGGUG [salish99_SSNG1_r04_902] (Eterna round: R96, puzzle: Same State NG 1)”: the “apparent KD of MS2 coat protein” value is, setting by setting: (input ligand: FMN 200 uM) 177 nM; under setting [4], 62.4 nM; (input ligand: none) 132 nM.
For “GUAGCAUACCGAGGAUAUUCAAAUUAACAUGAGGAUCACCCAUGUAGGCCACAUUAGUGGCCUUGGGAGAAGGCGGAAUGCUAC [Xeonanis - 20 Mod39] (Eterna round: R96, puzzle: Same State NG 2)”, the “apparent KD of MS2 coat protein” value worked out at 13.3 nM (input ligand: FMN 200 uM), 43.1 nM under setting [4] and 60.7 nM (input ligand: none).
In the same order, the values of “GUAGCAUGCAGGCAGGAUAUUCAUAUUAAAACAUGAGGAUCACCCAUGUAGGCCGAAAGGCCUUGGGAGAAGGGCCACAUGCUAC [Xeonanis - 18] (Eterna round: R96, puzzle: Same State 2)” are 36.8 nM, 429 nM and 704 nM.
On to “GUAGCAUGCAGGCAGGAUAUUCAUAUUAAAACAUGAGGAUCACCCAUGUAGGCCGAAAGGCCUUGGGAGAAGGGCCACAUGCUAC [Xeonanis - 18] (puzzle: Same State 2)”, for which the “apparent KD of MS2 coat protein” value is, setting by setting: under setting [1], 34.3 nM; under setting [2], 453 nM; under setting [3], 1020 nM.
For the sequence “GUAUCUACAGGUUGCGAUGCUCGUCUGAUACAUGAGGAUCACCCAUGUUAUAGCCCUGUGCUUGCGCAGGGCUGAUU [Sensor for hsa-mir-208a ( MOD of Tearor v.2 )] (Eterna round: R96, puzzle: Sensor for hsa-mir-208a)”, the “apparent KD of MS2 coat protein” value came to 105 nM (input ligand: FMN 200 uM), 26.7 nM under setting [4] and 84.6 nM (input ligand: none).
Take “GUAUCUACAGGUUGCGAUGCUCGUCUGAUACAUGAGGAUCACCCAUGUUAUAGCCCUGUGCUUGCGCAGGGCUGAUU [Sensor for hsa-mir-208a ( MOD of Tearor v.2 )] (puzzle: Sensor for hsa-mir-208a)”: the “apparent KD of MS2 coat protein” value by setting is: under setting [1], 136 nM; under setting [2], 33.4 nM; under setting [3], 116 nM.
With “GUCCAACAUGAGGAUCACCCAUGUCGGGCGUGCACAGGAUAUCGCGCCGGGAAAGACCAGCGAGAAGGGUGAUCGA [Leriqu] (puzzle: Same State 1)”, the “apparent KD of MS2 coat protein” value reads like this: under setting [1], 139 nM; under setting [2], 51.4 nM; under setting [3], 57.5 nM.
